We go through 10 proteins from paper PMC10487539, “Glutaryl-CoA Dehydrogenase Misfolding in Glutaric Acidemia Type 1” (International Journal of Molecular Sciences, 2023).

Where a chain is given by its changes, count along the chain named. Names and notes keep the numbering of the source.

Series [1] deals with the molecule itself. Put plainly: SEC; self-association; MBPTrap eluate on HiLoad 16/600 Superdex 200, 20 mM HEPES pH 7.0, 200 mM NaCl, 4 °C; higher oligomers or aggregates 45-55 mL, tetramers 65-75 mL, dimers 75-85 mL, monomers 85-95 mL.
Series [2] deals with the molecule itself. The series is described as follows: native gel or EMSA; self-association; BN-PAGE and Western blot of proteins purified by affinity chromatography; bands of monomer, dimer and tetramer as percent of total.
Series [3] concerns the molecule itself. Put plainly: SEC; self-association; as a1 but in 10 mM potassium phosphate buffer with 10% glycerol (used for A433V only), 4 °C.

B1: recombinant human glutaryl-CoA dehydrogenase, wild type, MBP fusion (enzyme)
chain: RPEFDWQDPLVLEEQLTTDEILIRDTFRTYCQERLMPRILLANRNEVFHREIISEMGELGVLGPTIKGYGCAGVSSVAYGLLARELERVDSGYRSAMSVQSSLVMHPIYAYGSEEQRQKYLPQLAKGELLGCFGLTEPNSGSDPSSMETRAHYNSSNKSYTLNGTKTWITNSPMADLFVVWARCEDGCIRGFLLEKGMRGLSAPRIQGKFSLRASATGMIIMDGVEVPEENVLPGASSLGGPFGCLNNARYGIAWGVLGASEFCLHTARQYALDRMQFGVPLARNQLIQKKLADMLTEITLGLHACLQLGRLKDQDKAAPEMVSLLKRNNCGKALDIARQARDMLGGNGISDEYHVIRHAMNLEAVNTYEGTHDIHALILGRAITGIQAFTASK
notes: glutaryl-CoA dehydrogenase (GCDH), human cDNA in pMAL-c2X; the precursor has 438 amino acids and the first 44 are cut on mitochondrial import; No cleavage of MBP is described; The printed masses (tetramer 173.2 kDa) count without MBP; also called GCDH; WT; not shown: MBP, N-terminal, kept
With B1, the “stoichiometry N” value in series [1] worked out at 4.

B2: recombinant human GCDH variant R138G, MBP fusion (enzyme)
chain: B1 chain with R94G
notes: glutaryl-CoA dehydrogenase (GCDH), human cDNA in pMAL-c2X, patient variant; No cleavage of MBP is described; also called c.412A > G; not shown: MBP, N-terminal, kept
For the protein B2, the binding result in series [2] is “binds”.

B3: recombinant human GCDH variant M263V, MBP fusion (enzyme)
chain: B1 chain with M219V
notes: glutaryl-CoA dehydrogenase (GCDH), human cDNA in pMAL-c2X, patient variant; No cleavage of MBP is described; also called c.787A > G; not shown: MBP, N-terminal, kept
As for B3, the binding result in series [2] is listed as “binds”.

B4: recombinant human GCDH variant E414K, MBP fusion (enzyme)
chain: B1 chain with E370K
notes: glutaryl-CoA dehydrogenase (GCDH), human cDNA in pMAL-c2X, patient variant; No cleavage of MBP is described; also called c.1240G > A; not shown: MBP, N-terminal, kept
On to B4, for which the binding result in series [1] is “binds”.

B5: recombinant human GCDH variant R227P, MBP fusion (enzyme)
chain: B1 chain with R183P
notes: glutaryl-CoA dehydrogenase (GCDH), human cDNA in pMAL-c2X, patient variant; No cleavage of MBP is described; also called c.680G > C; source: could not be purified by size-exclusion chromatography; not shown: MBP, N-terminal, kept
With B5, the binding result in series [2] is “binds”.

B6: recombinant human GCDH variant V400M, MBP fusion (enzyme)
chain: B1 chain with V356M
notes: glutaryl-CoA dehydrogenase (GCDH), human cDNA in pMAL-c2X, patient variant; No cleavage of MBP is described; also called c.1198G > A; not shown: MBP, N-terminal, kept
With B6, in series [2], the binding result is listed as “binds”.

B7: recombinant human GCDH variant A421V, MBP fusion (enzyme)
chain: B1 chain with A377V
notes: glutaryl-CoA dehydrogenase (GCDH), human cDNA in pMAL-c2X, patient variant; No cleavage of MBP is described; also called c.1262C > T; not shown: MBP, N-terminal, kept
B7: the binding result in series [1] is “binds”.

B8: recombinant human GCDH variant A433V, MBP fusion (enzyme)
chain: B1 chain with A389V
notes: glutaryl-CoA dehydrogenase (GCDH), human cDNA in pMAL-c2X, patient variant; No cleavage of MBP is described; also called c.1298C > T; not shown: MBP, N-terminal, kept
As to B8, the binding result in series [3] is on record as “binds”.

B9: recombinant human GCDH variant R88C, MBP fusion (enzyme)
chain: B1 chain with R44C
notes: glutaryl-CoA dehydrogenase (GCDH), human cDNA in pMAL-c2X, patient variant; No cleavage of MBP is described; also called c.262C > T; not shown: MBP, N-terminal, kept
With B9, the binding result in series [1] is on record as “binds”.

B10: recombinant human GCDH variant A433E, MBP fusion (enzyme)
chain: B1 chain with A389E
notes: glutaryl-CoA dehydrogenase (GCDH), human cDNA in pMAL-c2X, patient variant; No cleavage of MBP is described; also called c.1298C > A; not shown: MBP, N-terminal, kept
As to B10, the binding result in series [1] is recorded as “binds”.
